Results on 50 variants are retold here after the Human Domainome abundance scans (Beltran et al. 2025).

B1: Homeobox protein SIX3, residues 212 to 262; numbered along this chain, O95343 (parent)
chain: CFKERTRSLLREWYLQDPYPNPSKKRELAQATGLTPTQVGNWFKNRRQRDR

± gives the uncertainty stated by the source.

Variants of B1 are the subject of this data set. The data set is described as follows: abundance fitness (aPCA) (normalised: wild type 0, dead -1); higher = more abundant; growth selection in yeast, the domain comes from the species named. As to conditions: Homo sapiens.
Take CNKERTRSLLREWYLQDPYPNPSKKRELAQATGLTPTQVGNWFKNRRQRDR [F2N]: the abundance fitness turned out to be 0.149 ± 0.11.

Take CHKERTRSLLREWYLQDPYPNPSKKRELAQATGLTPTQVGNWFKNRRQRDR [F2H]: the abundance fitness was -0.083 ± 0.052.

For CIKERTRSLLREWYLQDPYPNPSKKRELAQATGLTPTQVGNWFKNRRQRDR [F2I], the abundance fitness is -0.047 ± 0.1.

In the case of CCKERTRSLLREWYLQDPYPNPSKKRELAQATGLTPTQVGNWFKNRRQRDR [F2C], the abundance fitness was -0.315 ± 0.092.

Regarding CLKERTRSLLREWYLQDPYPNPSKKRELAQATGLTPTQVGNWFKNRRQRDR [F2L], the abundance fitness was -0.022 ± 0.067.

In the case of CQKERTRSLLREWYLQDPYPNPSKKRELAQATGLTPTQVGNWFKNRRQRDR [F2Q], the abundance fitness was -0.178 ± 0.095.

CWKERTRSLLREWYLQDPYPNPSKKRELAQATGLTPTQVGNWFKNRRQRDR [F2W]: the abundance fitness was -0.538 ± 0.1.

As for CTKERTRSLLREWYLQDPYPNPSKKRELAQATGLTPTQVGNWFKNRRQRDR [F2T], the abundance fitness was -0.106 ± 0.074.

As to CMKERTRSLLREWYLQDPYPNPSKKRELAQATGLTPTQVGNWFKNRRQRDR [F2M], the abundance fitness amounted to 0.253 ± 0.089.

CRKERTRSLLREWYLQDPYPNPSKKRELAQATGLTPTQVGNWFKNRRQRDR [F2R]: the abundance fitness is -0.324 ± 0.048.

As for CAKERTRSLLREWYLQDPYPNPSKKRELAQATGLTPTQVGNWFKNRRQRDR [F2A], the abundance fitness was -0.183 ± 0.06.

As to CKKERTRSLLREWYLQDPYPNPSKKRELAQATGLTPTQVGNWFKNRRQRDR [F2K], the abundance fitness is 0.009 ± 0.1.

Take CGKERTRSLLREWYLQDPYPNPSKKRELAQATGLTPTQVGNWFKNRRQRDR [F2G]: the abundance fitness was -0.04 ± 0.045.

As to CYKERTRSLLREWYLQDPYPNPSKKRELAQATGLTPTQVGNWFKNRRQRDR [F2Y], the abundance fitness was 0.079 ± 0.093.

Take CPKERTRSLLREWYLQDPYPNPSKKRELAQATGLTPTQVGNWFKNRRQRDR [F2P]: the abundance fitness was -0.258 ± 0.044.

Turning to CDKERTRSLLREWYLQDPYPNPSKKRELAQATGLTPTQVGNWFKNRRQRDR [F2D], the abundance fitness came to 0.361 ± 0.076.

As to CEKERTRSLLREWYLQDPYPNPSKKRELAQATGLTPTQVGNWFKNRRQRDR [F2E], the abundance fitness amounted to 0.037 ± 0.062.

As to CFKERFRSLLREWYLQDPYPNPSKKRELAQATGLTPTQVGNWFKNRRQRDR [T6F], the abundance fitness is -0.504 ± 0.059.

Take CFKERGRSLLREWYLQDPYPNPSKKRELAQATGLTPTQVGNWFKNRRQRDR [T6G]: the abundance fitness was -0.192 ± 0.082.

On to CFKERIRSLLREWYLQDPYPNPSKKRELAQATGLTPTQVGNWFKNRRQRDR [T6I], for which the abundance fitness came to 0.288 ± 0.088.

Take CFKERMRSLLREWYLQDPYPNPSKKRELAQATGLTPTQVGNWFKNRRQRDR [T6M]: the abundance fitness was -0.115 ± 0.049.

CFKERERSLLREWYLQDPYPNPSKKRELAQATGLTPTQVGNWFKNRRQRDR [T6E]: the abundance fitness is -0.287 ± 0.061.

Take CFKERCRSLLREWYLQDPYPNPSKKRELAQATGLTPTQVGNWFKNRRQRDR [T6C]: the abundance fitness was -0.533 ± 0.2.

Turning to CFKERLRSLLREWYLQDPYPNPSKKRELAQATGLTPTQVGNWFKNRRQRDR [T6L], the abundance fitness was -0.16 ± 0.059.

Regarding CFKERKRSLLREWYLQDPYPNPSKKRELAQATGLTPTQVGNWFKNRRQRDR [T6K], the abundance fitness is -0.513 ± 0.26.

As for CFKERQRSLLREWYLQDPYPNPSKKRELAQATGLTPTQVGNWFKNRRQRDR [T6Q], the abundance fitness is -0.067 ± 0.21.

As for CFKERNRSLLREWYLQDPYPNPSKKRELAQATGLTPTQVGNWFKNRRQRDR [T6N], the abundance fitness is -0.409 ± 0.21.

For the variant CFKERSRSLLREWYLQDPYPNPSKKRELAQATGLTPTQVGNWFKNRRQRDR [T6S], the abundance fitness is -0.354 ± 0.091.

For CFKERHRSLLREWYLQDPYPNPSKKRELAQATGLTPTQVGNWFKNRRQRDR [T6H], the abundance fitness was found to be 0.086 ± 0.31.

Turning to CFKERVRSLLREWYLQDPYPNPSKKRELAQATGLTPTQVGNWFKNRRQRDR [T6V], the abundance fitness amounted to 0.057 ± 0.046.

For CFKERWRSLLREWYLQDPYPNPSKKRELAQATGLTPTQVGNWFKNRRQRDR [T6W], the abundance fitness is -0.434 ± 0.079.

Consider CFKERRRSLLREWYLQDPYPNPSKKRELAQATGLTPTQVGNWFKNRRQRDR [T6R], for which the abundance fitness was -0.401 ± 0.072.

For the variant CFKERYRSLLREWYLQDPYPNPSKKRELAQATGLTPTQVGNWFKNRRQRDR [T6Y], the abundance fitness was -0.289 ± 0.3.

As for CFKERARSLLREWYLQDPYPNPSKKRELAQATGLTPTQVGNWFKNRRQRDR [T6A], the abundance fitness was -0.268 ± 0.078.

On to GFKERTRSLLREWYLQDPYPNPSKKRELAQATGLTPTQVGNWFKNRRQRDR [C1G], for which the abundance fitness was -0.359 ± 0.14.

Take VFKERTRSLLREWYLQDPYPNPSKKRELAQATGLTPTQVGNWFKNRRQRDR [C1V]: the abundance fitness was -0.402 ± 0.3.

Turning to FFKERTRSLLREWYLQDPYPNPSKKRELAQATGLTPTQVGNWFKNRRQRDR [C1F], the abundance fitness amounted to 0.499 ± 0.16.

SFKERTRSLLREWYLQDPYPNPSKKRELAQATGLTPTQVGNWFKNRRQRDR [C1S]: the abundance fitness was -0.121 ± 0.18.

Regarding WFKERTRSLLREWYLQDPYPNPSKKRELAQATGLTPTQVGNWFKNRRQRDR [C1W], the abundance fitness was -0.251 ± 0.16.

For EFKERTRSLLREWYLQDPYPNPSKKRELAQATGLTPTQVGNWFKNRRQRDR [C1E], the abundance fitness was -0.342 ± 0.49.

As to IFKERTRSLLREWYLQDPYPNPSKKRELAQATGLTPTQVGNWFKNRRQRDR [C1I], the abundance fitness stood at 0.874 ± 0.28.

For the variant CFKMRTRSLLREWYLQDPYPNPSKKRELAQATGLTPTQVGNWFKNRRQRDR [E4M], the abundance fitness was -0.178 ± 0.25.

As for CFKLRTRSLLREWYLQDPYPNPSKKRELAQATGLTPTQVGNWFKNRRQRDR [E4L], the abundance fitness is -0.605 ± 0.17.

On to CFKRRTRSLLREWYLQDPYPNPSKKRELAQATGLTPTQVGNWFKNRRQRDR [E4R], for which the abundance fitness is -0.708 ± 0.06.

Take CFKFRTRSLLREWYLQDPYPNPSKKRELAQATGLTPTQVGNWFKNRRQRDR [E4F]: the abundance fitness was -0.226 ± 0.31.

Turning to CFKCRTRSLLREWYLQDPYPNPSKKRELAQATGLTPTQVGNWFKNRRQRDR [E4C], the abundance fitness is -0.685 ± 0.21.

Consider CFKGRTRSLLREWYLQDPYPNPSKKRELAQATGLTPTQVGNWFKNRRQRDR [E4G], for which the abundance fitness was -0.532 ± 0.13.

In the case of CFKNRTRSLLREWYLQDPYPNPSKKRELAQATGLTPTQVGNWFKNRRQRDR [E4N], the abundance fitness was -0.357 ± 0.42.

In the case of CFKWRTRSLLREWYLQDPYPNPSKKRELAQATGLTPTQVGNWFKNRRQRDR [E4W], the abundance fitness is -0.684 ± 0.16.

For CFKYRTRSLLREWYLQDPYPNPSKKRELAQATGLTPTQVGNWFKNRRQRDR [E4Y], the abundance fitness was -0.441 ± 0.28.
